The record followed here is patent US20090196913A1, “Anti-Alpha-V Immunoliposome Composition, Methods, and Uses” (priority 2007, published 2009).

One assay relates to A375.S2 cells. Put plainly: Binding and internalization at 37° C., confocal microscopy. The class given is cell-based, human. The note with it: 37° C. for 10 min, washed, 1 hour at 37° C. The method, then: These targeted-liposomes were used in the cytotoxicity assay using the various cells lines, as described below. A375.S2 cells were harvested by scraping and then resuspended to obtain individualized cells and rejuvenated for 1 hour, at 37° C. About 1 million cells of each tumor type were counted and distributed into individual centrifugation tubes. The tubes were spun to obtain a cell pellet. […] Cells were treated with the liposome formulations containing either a doxorubicin payload or a fluorescent marker (Dextran Alexa Fluor 488). Treatment was terminated by adding 1 mL of washing media (serum free), vortexing briefly, and centrifuging to recover a cell pellet The cells in the pellet were resuspend in washing media, vigorously shaken for 10 minutes at 37° C. and then centrifuged again (440 rpm). The cell pellet was left in 100 μL of media, an aliquot of 8 μL was taken and placed on a glass slide for observation under a confocal microscope.

Assay [1] addresses T1, integrin αvβ3 (Homo sapiens, UniProt P06756).
T1 construct: purchased Chemicon International Inc
Put plainly: scFv vs Mab integrin competition assay. It counts as binding. The note with it: αvβ3 coated plate, CNTO95 mAb at 0.8 nM. The method, then: (§1) To compare the binding affinity of scFv CNTO95 and CNTO 95 mAb, the 96-well plates were coated with 100 ul of integrin αvβ3 or αvβ5 as described above. CNTO95 mAb was added to each well at 0.8 nM for αvβ3 coated plate or 0.2 nM for αvβ5 coated plate. Controls and scFv purified protein diluted serially at 3-fold with TBST were added to the coated wells in duplicate. The mix of CNTO95 mAb and sFv were incubated at 37° C. for 2 hrs. The detection antibody was 1:10K dilution of peroxidase conjugated affinipure F(ab′)2 fragment Goat anti-human IgG, Fc fragment specific (minimal cross reaction to Bovine, Horse and mouse serum protein) (Jackson Immunoresearch ). The antibody was incubated on the plate 1 hr at 37° C. and the color was developed and read as above. CNTO95 mAb binding to both alpha-V-integrins was competed with the […] (FIGS. 15A and B).

Assay [2] addresses T2, integrin αvβ5 (Homo sapiens, UniProt P06756).
T2 construct: purchased Chemicon International Inc
Put plainly: scFv vs Mab integrin competition assay. It counts as binding. Conditions: αvβ5 coated plate, CNTO95 mAb at 0.2 nM. The method, then:
as §1

Assay [3] addresses T1, integrin αvβ3. Put plainly: scFv binding ELISA on integrin-coated plates. Conditions: detected by HRP anti-His Ab and anti-CNTO95 Ab (c508). The method, then:
(§2) The binding affinity of scFv CNTO95 was measured using a validated sandwich enzyme-linked immunoassay. The 96-well plates (Coasta, high binding plate) were coated with 100 ul of integrin αvβ3 or αvβ5 (Chemicon International Inc ) at 1 ug/ml in coating buffer (0.75 g Na2CO3 and 1.45 g NaHCO3 in 500 ml H2O) and incubated overnight at 4° C. The plates were blocked with Superblock blocking buffer in PBS (Pierce) at room temperature for 1 hr. Wells were washed with PBS+0.05% Tween 20 between each step. Controls and scFv purified protein were diluted serially at 3-fold with TBST, and added to the coated wells in duplicate, and incubated at 37° C. for 2 hrs. Two methods were used to detect the binding. For anti-his ELISA 1:1000 diluted HRP mouse anti-his antibody were added to each well and incubated for 1 hr. For the anti-CNTO95 anti-idiotype ELISA, an aliquot of 1:1000 diluted 1 mg/ml C508 antibody was added to each well and incubated for 1 hr. […]
(§3) The Elisa was developed using OPD tablet (Sigma) in development buffer for 15 min at room temperature. […] The binding affinity was measured in a plate reader at 490 nm. In the assay, purified CNTO95 scFv protein from E. coli bound both αvβ3 and αvβ5 integrin proteins (FIG. 14) as shown for integrin-coated ELISA plates and was detected by HRP anti-His Ab as well as the anti-CNTO95 Ab (c508).

Assay [4] deals with T2, integrin αvβ5. Put plainly: scFv binding ELISA on integrin-coated plates. The note with it: detected by HRP anti-His Ab and anti-CNTO95 Ab (c508). The method, then: as §2, §3

T2 sequence (P06756 31-889 limits assumed): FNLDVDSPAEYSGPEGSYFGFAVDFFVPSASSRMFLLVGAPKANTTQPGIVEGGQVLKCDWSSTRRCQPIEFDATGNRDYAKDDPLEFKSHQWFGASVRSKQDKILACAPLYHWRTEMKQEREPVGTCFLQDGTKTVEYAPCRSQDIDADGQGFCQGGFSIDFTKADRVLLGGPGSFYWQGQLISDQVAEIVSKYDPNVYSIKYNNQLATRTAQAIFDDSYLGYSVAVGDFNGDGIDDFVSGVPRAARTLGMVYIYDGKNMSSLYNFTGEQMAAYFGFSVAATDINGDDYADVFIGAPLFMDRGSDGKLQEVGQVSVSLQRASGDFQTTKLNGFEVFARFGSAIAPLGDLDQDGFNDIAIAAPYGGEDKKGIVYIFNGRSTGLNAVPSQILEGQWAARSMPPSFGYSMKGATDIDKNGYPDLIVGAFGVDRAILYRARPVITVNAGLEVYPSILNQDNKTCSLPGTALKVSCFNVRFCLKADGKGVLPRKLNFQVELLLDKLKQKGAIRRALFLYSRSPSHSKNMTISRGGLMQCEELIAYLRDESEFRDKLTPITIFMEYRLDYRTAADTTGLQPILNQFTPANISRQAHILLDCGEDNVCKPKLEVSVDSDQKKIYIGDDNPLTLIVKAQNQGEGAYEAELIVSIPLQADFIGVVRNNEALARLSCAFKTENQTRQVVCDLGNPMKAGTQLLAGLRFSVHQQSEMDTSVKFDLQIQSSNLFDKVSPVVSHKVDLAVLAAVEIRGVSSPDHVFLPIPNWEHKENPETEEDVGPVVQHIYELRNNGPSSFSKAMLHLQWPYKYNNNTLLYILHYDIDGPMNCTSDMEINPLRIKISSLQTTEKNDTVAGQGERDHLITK
T2 sequence (P06756 891-1048 partner limits assumed): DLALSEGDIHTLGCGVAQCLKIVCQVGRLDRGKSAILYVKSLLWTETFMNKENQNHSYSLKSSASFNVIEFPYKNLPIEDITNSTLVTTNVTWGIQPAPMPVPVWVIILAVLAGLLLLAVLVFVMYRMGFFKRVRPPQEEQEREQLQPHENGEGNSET
T2 sequence (P18084 24-799 partner): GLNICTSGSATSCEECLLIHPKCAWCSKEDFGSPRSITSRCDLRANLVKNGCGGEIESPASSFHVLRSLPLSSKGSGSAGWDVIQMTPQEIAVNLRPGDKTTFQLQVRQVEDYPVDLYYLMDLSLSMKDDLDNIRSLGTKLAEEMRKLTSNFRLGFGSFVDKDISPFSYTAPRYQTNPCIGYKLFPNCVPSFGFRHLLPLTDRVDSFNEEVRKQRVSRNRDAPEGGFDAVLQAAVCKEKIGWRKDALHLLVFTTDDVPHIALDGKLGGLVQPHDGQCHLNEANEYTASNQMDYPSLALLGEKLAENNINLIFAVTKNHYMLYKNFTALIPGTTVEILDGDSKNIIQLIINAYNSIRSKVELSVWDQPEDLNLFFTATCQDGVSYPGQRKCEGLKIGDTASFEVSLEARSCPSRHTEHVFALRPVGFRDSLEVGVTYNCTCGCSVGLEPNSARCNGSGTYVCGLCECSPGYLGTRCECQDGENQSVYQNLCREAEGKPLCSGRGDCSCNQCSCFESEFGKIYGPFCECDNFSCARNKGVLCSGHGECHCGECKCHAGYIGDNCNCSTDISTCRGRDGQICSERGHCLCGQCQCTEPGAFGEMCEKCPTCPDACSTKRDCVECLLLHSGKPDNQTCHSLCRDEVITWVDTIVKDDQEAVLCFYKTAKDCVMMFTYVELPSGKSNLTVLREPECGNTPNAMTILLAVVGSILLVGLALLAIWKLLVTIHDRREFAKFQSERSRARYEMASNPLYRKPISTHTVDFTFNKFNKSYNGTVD
T1 sequence (P06756 31-889 limits assumed): as the sequence (P06756 31-889 limits assumed) above
T1 sequence (P06756 891-1048 partner limits assumed): as the sequence (P06756 891-1048 partner limits assumed) above
T1 sequence (P05106 27-788 partner): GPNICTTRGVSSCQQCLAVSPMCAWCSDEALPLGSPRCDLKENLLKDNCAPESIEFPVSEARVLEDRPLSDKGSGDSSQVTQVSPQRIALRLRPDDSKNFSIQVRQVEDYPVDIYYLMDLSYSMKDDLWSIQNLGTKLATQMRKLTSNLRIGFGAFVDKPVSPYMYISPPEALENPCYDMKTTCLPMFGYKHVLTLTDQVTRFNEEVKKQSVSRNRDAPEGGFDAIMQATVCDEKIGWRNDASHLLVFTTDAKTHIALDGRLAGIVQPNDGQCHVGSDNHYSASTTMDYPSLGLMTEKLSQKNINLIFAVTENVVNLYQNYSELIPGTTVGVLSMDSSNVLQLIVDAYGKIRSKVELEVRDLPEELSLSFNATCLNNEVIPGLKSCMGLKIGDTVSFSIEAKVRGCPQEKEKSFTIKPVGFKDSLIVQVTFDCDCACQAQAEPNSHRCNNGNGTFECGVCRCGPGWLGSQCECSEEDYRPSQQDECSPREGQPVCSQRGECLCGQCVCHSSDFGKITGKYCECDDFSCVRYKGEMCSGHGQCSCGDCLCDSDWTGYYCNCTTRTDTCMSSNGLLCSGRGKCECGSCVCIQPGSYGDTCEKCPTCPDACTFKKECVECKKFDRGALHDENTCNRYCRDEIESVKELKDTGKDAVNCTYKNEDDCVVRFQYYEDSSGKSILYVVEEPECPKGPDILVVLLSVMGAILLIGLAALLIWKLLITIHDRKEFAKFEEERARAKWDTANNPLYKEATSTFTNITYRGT

`COc1cccc2c1C(=O)c1c(O)c3c(c(O)c1C2=O)C[C@@](O)(C(=O)CO)C[C@@H]3O[C@H]1C[C@H](N)[C@H](O)[C@H](C)O1` [free dox, doxorubicin]: in the assay with A375.S2 cells, the “binding and internalization (confocal microscopy)” value is “drug internalization is evident”.
Turning to “CNTO95 scFv: single chain variable fragment of CNTO 95, VH-(Gly4Ser)3-VL, R18L, 6×His tag and Gly4Cys (SEQ ID NO: 4)”, the “competition with CNTO95 mAb for integrin binding” value with integrin αvβ3 [1] and in the assay with integrin αvβ5 [2] was “effectively competes” in each case. Besides, the “binding to integrin-coated ELISA plates” value in the assay with integrin αvβ3 [3] and with integrin αvβ5 [4] was “bound” in each case.
